The values that follow come from PMC9850916 (Biochemistry, 2022).

Holding throughout (assay): SPR
The target of experiment [1] is IgG1-Fc fragment produced by Expi293 cells (human, N-glycosylated).
Experiment [2] addresses maltose-binding protein-linked IgG1-Fc fragment ( | human, N-glycosylated Fc).
Experiment [3] has as its target papain-digested Fc fragment of commercially available rituximab (human, N-glycosylated).

B1: mutant human FcγRIIIa (V158) ectodomain (amino acid residues 1–175) with nine amino acid mutations a (receptor)
chain: RTEDLPKAEVILEPQWNRVLEKDSVTLKCRGAYSPEDNSTQWFHNESLISSQASSYLIDAATVDDSGEYRCQTSLSTLSDPVQLEVHIGWLLLQAPRWEFKEGDPIHLRCHSWKNTALHKVTYLQNGKGRKYFHHNSDFYIPKATLKDSGSYSCRGLVGSKNVSSETVNITITQG
On to B1, for which, in experiment [1], the equilibrium dissociation constant (Kd) came to 1680 nM, the off-rate (koff) came to 0.0802 s⁻¹ and the kon is 47800 M⁻¹ s⁻¹. In experiment [2], this molecule returned an equilibrium dissociation constant (Kd) of 3470 nM, a dissociation rate constant (koff) of 0.0635 s⁻¹ and an on-rate constant (kon) of 18400 M⁻¹ s⁻¹. For the same molecule, in experiment [3], binding was put at a Kd of 1660 nM, the koff was found to be 0.0721 s⁻¹ and the kon turned out to be 43900 M⁻¹ s⁻¹.
